The source of these data is publication PMC5680779.

The test deals with HIV-1 Integrase (IN) from NL4-3, Flag-tagged (HIV-1 NL4-3). The test is described as follows: AlphaScreen or HTRF; HTRF-based IN-IN multimerization assay with Flag-tagged and His-tagged IN from NL4-3; with the small molecule MUT-A, signal compared to the IN-IN signal without MUT-A. (Bead proximity is the source of the signal in Alpha formats.)

Consider “HIV-1 Integrase (IN) from NL4-3, Flag-tagged (enzyme)”, for which the maximum multimerization signal plateau with MUT-A (percent of the IN-IN signal without MUT-A) stood at 600%.
